Molecular target: the molecule itself
Assay: SEC

B1: murine hexosaminidase D, short form (enzyme, mouse, UniProt Q3U4H6 1-486, looked up)
chain: MSSPTPFKMRLVHLDLKGAPPKVSYLSEVFPLFHALGANGLLIEYEDMFPYEGHLRLLRAKHAYSPSEVTEILRLARLSELEVIPLVQTFGHMEFVLKHAAFAHLREVALFPNTLNPHEAESLALVQAMIDQILELHRDVRWLHIGCDEVYYLGEGETSKQWLQQEQNSHAKLCLSHMQAVASHVLTQHPGVTPLVWDDMLRDIPQEQLKASGVPQLVEPVLWDYGADLDVHGKVFLIGKYQECGFQRLWAASAFKGATGASQALPPVEHHIRNHELWLQVAGSGPKDALQGIILTGWQRYDHFSVLCELLPVGIPSLAACLQSLVHGGFAEDVRLRAERFLGVSSLEIADTVSEGAGSFPGSDIHALVTQISLHLRSSVDTLLERNRYVTGWFSPYHRRRKLVHPVMIQHIQPEALSLLSRWNNLVQQLEVALQPVFYPDTIEEWLEENVLPSLQRLQDLLQDLGEAAARQPPPTSPGWDTGQNP
stoichiometry N: 2
